# Target: SARS-CoV-2 nsp15 with H234A mutation and a N-terminal Strep-Tag II (SARS-CoV-2)
# Test: cryo-EM structure
substance,measurement,value
SARS-CoV-2 nsp15 with H234A mutation and a N-terminal Strep-Tag II (enzyme),stoichiometry N,6
